The source of these data is patent US20140080757A1 (ZEALAND PHARMA A S, published 2014).

Common to all, as to assay: cell-based or functional assay
The target in experiment [1] is human glucagon receptor (Glucagon-R) (human, UniProt P47871 26-477).
Experiment [2] concerns the target human glucagon-like peptide 1 receptor (GLP-1R) (human, UniProt P43220 24-463).
Experiment [3] has as its target T1, endogenous GLP-1 receptor of a murine insulinoma cell line (murine, UniProt O35659 22-463).
T1 sequence (looked up): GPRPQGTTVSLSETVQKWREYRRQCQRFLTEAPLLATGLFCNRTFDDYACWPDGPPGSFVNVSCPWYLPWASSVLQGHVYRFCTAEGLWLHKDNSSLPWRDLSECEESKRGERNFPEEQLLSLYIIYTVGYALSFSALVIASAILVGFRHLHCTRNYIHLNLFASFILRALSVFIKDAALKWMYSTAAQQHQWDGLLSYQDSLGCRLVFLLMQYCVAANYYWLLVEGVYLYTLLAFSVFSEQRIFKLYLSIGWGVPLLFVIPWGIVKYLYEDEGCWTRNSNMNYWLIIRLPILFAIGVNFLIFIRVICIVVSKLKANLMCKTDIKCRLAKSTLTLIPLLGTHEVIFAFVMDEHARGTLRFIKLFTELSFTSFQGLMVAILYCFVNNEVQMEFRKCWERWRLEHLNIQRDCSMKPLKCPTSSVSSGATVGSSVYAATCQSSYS

In experiment [4] the target is endogenous glucagon receptor of primary rat hepatocytes (rat, UniProt P30082 27-485).
Chain of endogenous glucagon receptor of primary rat hepatocytes (P30082 27-485): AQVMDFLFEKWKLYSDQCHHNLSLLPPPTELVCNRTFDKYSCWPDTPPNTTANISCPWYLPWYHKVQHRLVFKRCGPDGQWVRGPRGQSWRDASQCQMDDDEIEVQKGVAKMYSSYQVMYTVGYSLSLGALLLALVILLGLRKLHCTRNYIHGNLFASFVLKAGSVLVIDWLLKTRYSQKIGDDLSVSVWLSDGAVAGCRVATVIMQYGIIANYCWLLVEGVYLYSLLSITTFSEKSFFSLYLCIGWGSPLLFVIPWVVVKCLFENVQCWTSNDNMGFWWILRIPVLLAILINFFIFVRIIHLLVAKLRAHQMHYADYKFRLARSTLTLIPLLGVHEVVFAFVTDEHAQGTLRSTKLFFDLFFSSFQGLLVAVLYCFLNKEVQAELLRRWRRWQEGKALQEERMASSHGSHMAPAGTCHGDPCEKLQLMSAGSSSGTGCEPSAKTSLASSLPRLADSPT

Numbered stars: 1 amine (or outer) side, 2 acyl side, 3 side chain; on linkers, the order of the positions; unused ones are H or OH. Side chains are listed from the residue outwards. * marks the point of attachment. γGlu = O=C(O)[C@H](CCC(=O)[*:2])N[*:1]; Palmitoyl = CCCCCCCCCCCCCCCC(=O)*

Chain of human glucagon receptor (Glucagon-R) (P47871 26-477): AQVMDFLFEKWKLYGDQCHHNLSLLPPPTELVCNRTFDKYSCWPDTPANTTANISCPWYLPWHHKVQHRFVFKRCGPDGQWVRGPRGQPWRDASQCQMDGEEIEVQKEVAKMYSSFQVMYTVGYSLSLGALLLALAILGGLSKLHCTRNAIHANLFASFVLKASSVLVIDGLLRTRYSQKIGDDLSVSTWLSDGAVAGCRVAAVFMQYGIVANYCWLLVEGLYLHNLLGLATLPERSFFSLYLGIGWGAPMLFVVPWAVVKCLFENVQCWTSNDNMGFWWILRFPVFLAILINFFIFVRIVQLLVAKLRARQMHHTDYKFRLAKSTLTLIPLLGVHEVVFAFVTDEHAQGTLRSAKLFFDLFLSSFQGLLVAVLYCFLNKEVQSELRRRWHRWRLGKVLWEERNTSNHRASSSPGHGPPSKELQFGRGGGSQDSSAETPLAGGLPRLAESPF

B1: Compound 6 (peptide)
peptide: H-HSQGTFTSDYSRYLDSK([γGlu-Palmitoyl])AAEDFVEWLLRA-NH2
SMILES: CCCCCCCCCCCCCCCC(=O)N[C@@H](CCC(=O)NCCCC[C@H](NC(=O)[C@H](CO)NC(=O)[C@H](CC(=O)O)NC(=O)[C@H](CC(C)C)NC(=O)[C@H](Cc1ccc(O)cc1)NC(=O)[C@H](CCCNC(=N)N)NC(=O)[C@H](CO)NC(=O)[C@H](Cc1ccc(O)cc1)NC(=O)[C@H](CC(=O)O)NC(=O)[C@H](CO)NC(=O)[C@@H](NC(=O)[C@H](Cc1ccccc1)NC(=O)[C@@H](NC(=O)CNC(=O)[C@H](CCC(N)=O)NC(=O)[C@H](CO)NC(=O)[C@@H](N)Cc1c[nH]cn1)[C@@H](C)O)[C@@H](C)O)C(=O)N[C@@H](C)C(=O)N[C@@H](C)C(=O)N[C@@H](CCC(=O)O)C(=O)N[C@@H](CC(=O)O)C(=O)N[C@@H](Cc1ccccc1)C(=O)N[C@H](C(=O)N[C@@H](CCC(=O)O)C(=O)N[C@@H](Cc1c[nH]c2ccccc12)C(=O)N[C@@H](CC(C)C)C(=O)N[C@@H](CC(C)C)C(=O)N[C@@H](CCCNC(=N)N)C(=O)N[C@@H](C)C(N)=O)C(C)C)C(=O)O
For B1, in experiment [1], the “EC50 hGCGR CHO-K1 [nM] (cAMP)” value amounted to 0.46 nM. For the same molecule, in experiment [2], the “EC50 hGLP-1R CHO-K1 [nM] (cAMP)” value stood at 0.35 nM and the “Ratio GLP-1/Glucagon (EC50 hGLP-1R / EC50 hGCGR)” value turned out to be 0.76 ratio. Further, the “EC50 GLP-1R (murine insulinoma cells) [nM] (cAMP)” value (shortened to “EC50 GLP-1R … (cAMP)”) in experiment [3] is 1.14 nM. For the same molecule, in experiment [4], the “EC50 GLP-1R Rat hepat. [nM] (inhibition of glycogen synthesis)” value was 2.87 nM.

B2: Compound 10 (peptide)
peptide: H-HSQGTFTSDYSKYLDEK([γGlu-Palmitoyl])AAHEFVEWLESA-NH2
SMILES: CCCCCCCCCCCCCCCC(=O)N[C@@H](CCC(=O)NCCCC[C@H](NC(=O)[C@H](CCC(=O)O)NC(=O)[C@H](CC(=O)O)NC(=O)[C@H](CC(C)C)NC(=O)[C@H](Cc1ccc(O)cc1)NC(=O)[C@H](CCCCN)NC(=O)[C@H](CO)NC(=O)[C@H](Cc1ccc(O)cc1)NC(=O)[C@H](CC(=O)O)NC(=O)[C@H](CO)NC(=O)[C@@H](NC(=O)[C@H](Cc1ccccc1)NC(=O)[C@@H](NC(=O)CNC(=O)[C@H](CCC(N)=O)NC(=O)[C@H](CO)NC(=O)[C@@H](N)Cc1c[nH]cn1)[C@@H](C)O)[C@@H](C)O)C(=O)N[C@@H](C)C(=O)N[C@@H](C)C(=O)N[C@@H](Cc1c[nH]cn1)C(=O)N[C@@H](CCC(=O)O)C(=O)N[C@@H](Cc1ccccc1)C(=O)N[C@H](C(=O)N[C@@H](CCC(=O)O)C(=O)N[C@@H](Cc1c[nH]c2ccccc12)C(=O)N[C@@H](CC(C)C)C(=O)N[C@@H](CCC(=O)O)C(=O)N[C@@H](CO)C(=O)N[C@@H](C)C(N)=O)C(C)C)C(=O)O
As to B2, the “EC50 hGCGR CHO-K1 [nM] (cAMP)” value in experiment [1] was 0.23 nM. Further, in experiment [2], the “EC50 hGLP-1R CHO-K1 [nM] (cAMP)” value turned out to be 0.23 nM and the “Ratio GLP-1/Glucagon (EC50 hGLP-1R / EC50 hGCGR)” value is 1 ratio. The “EC50 GLP-1R … (cAMP)” value in experiment [3] was found to be 0.33 nM. For the same molecule, in experiment [4], the “EC50 GLP-1R Rat hepat. [nM] (inhibition of glycogen synthesis)” value was 0.04 nM.

B3: Compound 9 (peptide)
peptide: H-HSQGTFTSDYSKYLDSK([γGlu-Palmitoyl])AAHDFVEWLLR-OH
SMILES: CCCCCCCCCCCCCCCC(=O)N[C@@H](CCC(=O)NCCCC[C@H](NC(=O)[C@H](CO)NC(=O)[C@H](CC(=O)O)NC(=O)[C@H](CC(C)C)NC(=O)[C@H](Cc1ccc(O)cc1)NC(=O)[C@H](CCCCN)NC(=O)[C@H](CO)NC(=O)[C@H](Cc1ccc(O)cc1)NC(=O)[C@H](CC(=O)O)NC(=O)[C@H](CO)NC(=O)[C@@H](NC(=O)[C@H](Cc1ccccc1)NC(=O)[C@@H](NC(=O)CNC(=O)[C@H](CCC(N)=O)NC(=O)[C@H](CO)NC(=O)[C@@H](N)Cc1c[nH]cn1)[C@@H](C)O)[C@@H](C)O)C(=O)N[C@@H](C)C(=O)N[C@@H](C)C(=O)N[C@@H](Cc1c[nH]cn1)C(=O)N[C@@H](CC(=O)O)C(=O)N[C@@H](Cc1ccccc1)C(=O)N[C@H](C(=O)N[C@@H](CCC(=O)O)C(=O)N[C@@H](Cc1c[nH]c2ccccc12)C(=O)N[C@@H](CC(C)C)C(=O)N[C@@H](CC(C)C)C(=O)N[C@@H](CCCNC(=N)N)C(=O)O)C(C)C)C(=O)O
As to B3, the “EC50 hGCGR CHO-K1 [nM] (cAMP)” value in experiment [1] was 0.25 nM. Further, in experiment [2], the “EC50 hGLP-1R CHO-K1 [nM] (cAMP)” value was 0.35 nM and the “Ratio GLP-1/Glucagon (EC50 hGLP-1R / EC50 hGCGR)” value is 1.4 ratio. In experiment [3], the “EC50 GLP-1R … (cAMP)” value came to 1.02 nM. The “EC50 GLP-1R Rat hepat. [nM] (inhibition of glycogen synthesis)” value in experiment [4] amounted to 0.37 nM.

B4: Compound 8 (peptide)
peptide: H-HSQGTFTSDYSKYLDSK([γGlu-Palmitoyl])AAHDFVEWLLS-NH2
SMILES: CCCCCCCCCCCCCCCC(=O)N[C@@H](CCC(=O)NCCCC[C@H](NC(=O)[C@H](CO)NC(=O)[C@H](CC(=O)O)NC(=O)[C@H](CC(C)C)NC(=O)[C@H](Cc1ccc(O)cc1)NC(=O)[C@H](CCCCN)NC(=O)[C@H](CO)NC(=O)[C@H](Cc1ccc(O)cc1)NC(=O)[C@H](CC(=O)O)NC(=O)[C@H](CO)NC(=O)[C@@H](NC(=O)[C@H](Cc1ccccc1)NC(=O)[C@@H](NC(=O)CNC(=O)[C@H](CCC(N)=O)NC(=O)[C@H](CO)NC(=O)[C@@H](N)Cc1c[nH]cn1)[C@@H](C)O)[C@@H](C)O)C(=O)N[C@@H](C)C(=O)N[C@@H](C)C(=O)N[C@@H](Cc1c[nH]cn1)C(=O)N[C@@H](CC(=O)O)C(=O)N[C@@H](Cc1ccccc1)C(=O)N[C@H](C(=O)N[C@@H](CCC(=O)O)C(=O)N[C@@H](Cc1c[nH]c2ccccc12)C(=O)N[C@@H](CC(C)C)C(=O)N[C@@H](CC(C)C)C(=O)N[C@@H](CO)C(N)=O)C(C)C)C(=O)O
Turning to B4, the “EC50 hGCGR CHO-K1 [nM] (cAMP)” value in experiment [1] is 0.29 nM. Also, in experiment [2], the “EC50 hGLP-1R CHO-K1 [nM] (cAMP)” value was determined as 0.41 nM and the “Ratio GLP-1/Glucagon (EC50 hGLP-1R / EC50 hGCGR)” value stood at 1.41 ratio. The “EC50 GLP-1R … (cAMP)” value in experiment [3] was found to be 0.95 nM. In experiment [4], the “EC50 GLP-1R Rat hepat. [nM] (inhibition of glycogen synthesis)” value was found to be 1.1 nM.

B5: Compound 7 (peptide)
peptide: H-HSQGTFTSDYSKYLDSK([γGlu-Palmitoyl])AAEDFVEWLLRA-NH2
SMILES: CCCCCCCCCCCCCCCC(=O)N[C@@H](CCC(=O)NCCCC[C@H](NC(=O)[C@H](CO)NC(=O)[C@H](CC(=O)O)NC(=O)[C@H](CC(C)C)NC(=O)[C@H](Cc1ccc(O)cc1)NC(=O)[C@H](CCCCN)NC(=O)[C@H](CO)NC(=O)[C@H](Cc1ccc(O)cc1)NC(=O)[C@H](CC(=O)O)NC(=O)[C@H](CO)NC(=O)[C@@H](NC(=O)[C@H](Cc1ccccc1)NC(=O)[C@@H](NC(=O)CNC(=O)[C@H](CCC(N)=O)NC(=O)[C@H](CO)NC(=O)[C@@H](N)Cc1c[nH]cn1)[C@@H](C)O)[C@@H](C)O)C(=O)N[C@@H](C)C(=O)N[C@@H](C)C(=O)N[C@@H](CCC(=O)O)C(=O)N[C@@H](CC(=O)O)C(=O)N[C@@H](Cc1ccccc1)C(=O)N[C@H](C(=O)N[C@@H](CCC(=O)O)C(=O)N[C@@H](Cc1c[nH]c2ccccc12)C(=O)N[C@@H](CC(C)C)C(=O)N[C@@H](CC(C)C)C(=O)N[C@@H](CCCNC(=N)N)C(=O)N[C@@H](C)C(N)=O)C(C)C)C(=O)O
Take B5: the “EC50 hGCGR CHO-K1 [nM] (cAMP)” value in experiment [1] was 0.45 nM. Moreover, in experiment [2], the “EC50 hGLP-1R CHO-K1 [nM] (cAMP)” value was 0.27 nM and the “Ratio GLP-1/Glucagon (EC50 hGLP-1R / EC50 hGCGR)” value was found to be 0.6 ratio. For the same molecule, the “EC50 GLP-1R … (cAMP)” value in experiment [3] is 0.84 nM. The “EC50 GLP-1R Rat hepat. [nM] (inhibition of glycogen synthesis)” value in experiment [4] is 1.92 nM.
